# Results published in patent US9669247B2 (priority 2011, dated 2017).
# Assays:
# [1] = pH 7
# [2] = pH 7; remark: listed apart in the source
molecule,measurement,setting,value
"TsmE (protein, Methylophilus sp. S113; Thiefensulfuron Hydrolase TSME) METDKKTGTSRRSFVKAAGTGAIGIATLPLSTATAFAETDNVELAQSKRKVVLAEQGSFYIGGRTVTGPGKFDPSKPVIPYSNEGATFYINQMYVNFQAPVRPRGLPLVFWHGGGLTGHIWESTPDGRPGFQTLFVQDRHTVYTIDQPGRGRGNIPTFNGPFGQLEEESIVNTVTGNSSKEGAWVRDRLGPAPGQFFENSQFPRGYEDNYFKEMGFSPSISSDEIVDAVVKLVTHIGPCVLVTHSASGVLGMRVATHAKNVRGIVAYEPATSIFPKGKVPEIPPLADKKSQIFPPFEIQESYFKKLAKIPIQFVFGDNIPKNPKSAYWFLDWWRVTRYAHSLSLEAINKLGGQASLLDLPTAGLRGNTHFPFTDRNNVQVASLLSDFLGKHGLDQNES",specific enzyme activity of TsmE to haloxyfop-R-methyl,[1],55 U/mg protein
same,specific enzyme activity of TsmE to thifensulfuron,[2],67 U/mg protein
